What was measured:
[1] = target: T1, human CD134 (full-length, on cells) (human, UniProt P43489 29-277); assay: flow cytometry, PHA-stimulated human T lymphocytes
T1 construct: also called OX40; TNFRSF4
T1 sequence: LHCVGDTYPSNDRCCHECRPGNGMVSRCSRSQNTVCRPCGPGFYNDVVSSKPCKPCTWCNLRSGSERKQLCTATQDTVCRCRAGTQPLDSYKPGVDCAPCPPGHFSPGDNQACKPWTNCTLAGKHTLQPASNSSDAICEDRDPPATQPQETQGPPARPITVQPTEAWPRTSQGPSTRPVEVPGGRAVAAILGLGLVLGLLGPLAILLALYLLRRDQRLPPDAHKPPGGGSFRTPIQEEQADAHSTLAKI

[2] = target: T1, human CD134 (full-length, on cells); assay: flow cytometry, PHA-stimulated human T lymphocytes, two donors
Method: PHA-stimulated (at 10 μg/mL for 2 days; see above) human CD134 expressing T lymphocytes were generated. Cells were harvested and put at 1-2×10⁶ cells/mL in ice chilled PBS/BSA/NaN₃ supplemented with 10% HPS (blocking Fcγ receptors; BioWhittaker). […] After extensive washing in PBS/BSA/NaN₃, cells were subsequently incubated with 1:200 diluted PE-conjugated goat anti-mouse IgG antibodies (Jackson ImmunoResearch) for 30 minutes at 4° C. […] After extensive washing in PBS/BSA/NaN₃, cells were fixed in 2% formaldehyde in PBS/BSA/NaN₃ for 30 minutes at 4° C.

[3] = target: T1, human CD134 (full-length, on cells); assay: flow cytometry, PHA-stimulated human CD4 positive T lymphocytes
Method: PHA-stimulated (at 10 μg/mL for 1 day; see above) human CD134 expressing T lymphocytes were generated. Cells were harvested and put at 1-2×10⁶ cells/mL in ice-chilled PBS/BSA/NaN3. […] After extensive washing in PBS/BSA/NaN₃, cells were subsequently incubated with 1:50 diluted FITC-conjugated mouse anti-human IgG4 antibodies (Sigma) for 30 minutes at 4° C. […] After extensive washing in PBS/BSA/NaN₃, cells were fixed in 2% formaldehyde in PBS/BSA/NaN₃ for 30 minutes at 4° C.

[4] = target: T2, human fibronectin-derived control peptide (extra type III structural domain) (human); assay: ELISA, plate coated with 10 ng/well control peptide, HRP goat anti-mouse IgG Fcγ, n=1
T2 construct: Synthesized by Pepscan Presto; coated on ELISA plates at 10 ng/well; also called ED1 peptide
T2 peptide: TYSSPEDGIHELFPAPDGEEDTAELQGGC
Method: (§1) Ninety six-wells flat-bottom ELISA plates (Corning) were coated with 10 ng/well human CD134-derived peptide (synthesized by Pepscan Presto, Lelystad, The Netherlands), which corresponded to amino acid sequence of truncated CRD3 A1-module-CRD4 subdomain A1-module (see SEQ ID NO. 38) or with 10 ng/well human fibronectin-derived control peptide (synthesized by Pepscan Presto, Lelystad, The Netherlands), which corresponded to amino acid sequence of extra type III structural domain (see SEQ ID NO. 37) in PBS o/n at 4° C. After extensive washing in PBS/0.05% Tween 20, plates were blocked in PBS/0.05% Tween 20/1% BSA fraction V (Roche) for 1 hour at RT. […] After extensive washing in PBS/0.05% Tween 20, binding of antibodies was determined with 1:5000 diluted horseradish peroxidase-conjugated goat anti-mouse IgG Fcγ-specific antibodies (Jackson ImmunoResearch) for 1 hour at RT, followed by a ready-to-use solution of TMB substrate (lnvitrogen) for colorimetric detection. After adding 1 M H₂SO₄, optical densities was measured at a wavelength of 450 nm (reference wavelength of 655 nm) using a microplate reader (BioRad).

[5] = target: T3, human CD134-derived peptide (truncated CRD3 A1-module-CRD4 subdomain A1-module, amino acids 108-146) (human); assay: ELISA, plate coated with 10 ng/well huCD134 peptide, HRP goat anti-mouse IgG Fcγ, n=1
T3 construct: Synthesized by Pepscan Presto; coated on ELISA plates at 10 ng/well
T3 peptide: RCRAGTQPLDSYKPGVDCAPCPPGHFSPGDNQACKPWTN
Method: as §1

[6] = target: T4, 'truncated (tc) CRD4' construct of human CD134 (amino acids 147-277 linked to signal peptide amino acids 1-28) (human, UniProt P43489 147-277); assay: flow cytometry on 293-F cells transiently transfected with the construct, PE goat anti-mouse IgG (Fcγ) [cont.]
T4 construct: also called truncated CRD4
T4 sequence: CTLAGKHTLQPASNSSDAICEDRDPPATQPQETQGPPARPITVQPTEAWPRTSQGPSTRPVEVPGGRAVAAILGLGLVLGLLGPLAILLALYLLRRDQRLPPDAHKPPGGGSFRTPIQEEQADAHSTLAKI
Method: (§2) After 48-72 h, surface human CD134 expression on transfected cells was analyzed by FACS analysis. To this end, transfected cells were harvested and put at 1-2×10⁶ cells/mL in ice-chilled PBS/BSA/NaN₃. […] After extensive washing in PBS/BSA/NaN₃, cells were subsequently incubated with 1:200 diluted PE-conjugated goat anti-mouse IgG (Fcγ specific) antibodies (Jackson ImmunoResearch) for 30 minutes at 4° C. After extensive washing in PBS/BSA/NaN₃, cells were fixed in 2% formaldehyde in PBS/BSA/NaN₃ for 30 minutes at 4° C.

[7] = target: T2, human fibronectin-derived control …; assay: ELISA, plate coated with 10 ng/well control peptide, HRP goat anti-human IgG Fcγ, n=1
Method: as §1, with “anti-human” for “anti-mouse”, “(invitrogen)” for “(lnvitrogen)”

[8] = target: T4, 'truncated (tc) CRD4' construct of …; assay: flow cytometry on 293-F cells transiently transfected with the construct, PE goat anti-human IgG (Fcγ) [cont.]
Method: as §2, with “PBS/BSA/NaN3.” for “PBS/BSA/NaN₃.”, “anti-human” for “anti-mouse”

[9] = target: T3, human CD134-derived peptide (truncated …); assay: ELISA, plate coated with 10 ng/well huCD134 peptide, HRP goat anti-human IgG Fcγ, n=1
Method: as §1, with “anti-human” for “anti-mouse”, “(invitrogen)” for “(lnvitrogen)”

## commercially available mouse anti-human CD134 antibody clone ACT35 (BD Biosciences)
[1]
  saturating concentration: 5 µg/mL
[2]
  EC50: 2.5 µg/mL

B1: mouse anti-human CD134 monoclonal antibody clone 20E5 (antibody, mouse IgG1, V domains shown)
VH: EVQLQQSGPELVKPGASVKMSCKASGYTFTSYVMHWVKQKPGQGLEWIGYINPYNDGTKYNEKFKGKATLTSDKSSSTAYMELSSLTSEDSAVYYCANYYGSSLSMDYWGQGTSVTVSS
VL: DIQMTQTTSSLSASLGDRVTISCRASQDISNYLNWYQQKPDGTVKLLIYYTSRLHSGVPSRFSGSGSGTDYSLTISNLEQEDIATYFCQQGNTLPWTFGGGTKLEIKR
notes: also called m20E5
[2]
  EC50: 2.5 µg/mL

B2: chimeric human IgG4κ anti-human CD134 antibody clone 20E5 (antibody, V domains shown)
VH: EVQLQQSGPELVKPGASVKMSCKASGYTFTSYVMHWVKQKPGQGLEWIGYINPYNDGTKYNEKFKGKATLTSDKSSSTAYMELSSLTSEDSAVYYCANYYGSSLSMDYWGQGTSVTVSS
VL: DIQMTQTTSSLSASLGDRVTISCRASQDISNYLNWYQQKPDGTVKLLIYYTSRLHSGVPSRFSGSGSGTDYSLTISNLEQEDIATYFCQQGNTLPWTFGGGTKLEIKR
notes: also called hu20E5
[3]
  EC50: ~1 µg/mL

B3: mouse anti-human CD134 monoclonal antibody clone 12H3 (antibody, mouse IgG1, V domains shown)
VH: EVQLQQSGPELVKPGASVKISCKTSGYTFKDYTMHWVKQSHGKSLEWIGGIYPNNGGSTYNQNFKDKATLTVDKSSSTAYMEFRSLTSEDSAVYYCARMGYHGPHLDFDVWGAGTTVTVSP
VL: DIVMTQSHKFMSTSLGDRVSITCKASQDVGAAVAWYQQKPGQSPKLLIYWASTRHTGVPDRFTGGGSGTDFTLTISNVQSEDLTDYFCQQYINYPLTFGGGTKLEIKR
notes: also called m12H3
[4]
  binding result: no binding (tested: 50 µg/mL)
[2]
  EC50: 0.5 µg/mL
[5]
  binding result: binds
[6]
  binding result: no binding (tested: 20.0 µg/mL)

B4: chimeric human IgG4κ anti-human CD134 monoclonal antibody clone 12H3 (antibody, V domains shown)
VH: EVQLQQSGPELVKPGASVKISCKTSGYTFKDYTMHWVKQSHGKSLEWIGGIYPNNGGSTYNQNFKDKATLTVDKSSSTAYMEFRSLTSEDSAVYYCARMGYHGPHLDFDVWGAGTTVTVSP
VL: DIVMTQSHKFMSTSLGDRVSITCKASQDVGAAVAWYQQKPGQSPKLLIYWASTRHTGVPDRFTGGGSGTDFTLTISNVQSEDLTDYFCQQYINYPLTFGGGTKLEIKR
[7]
  binding result: no binding (tested: 50 µg/mL)
[8]
  binding result: no binding (tested: 20.0 µg/mL)
[9]
  binding result: binds
